According to paper PMC8130932 (PLoS Pathogens, 2021):

B1: EW 9C (antibody, V domains shown)
VH: EVQLVESGGGVVQPGASLRLSCVASGFTFNNFGFHWVRQAPGKGLEWLAVISYEGSKTYYAESLKGRFTISRDTSKNTVYLQMNSLRAEDTAVYYCARATSIFWFGEGRNWFDPWGQGTMVTVSS
VL: EIVLTQSPGTVSLSAGERATLSCRASQNVGTDLAWYVQRPGQAPRLLIYDTSNKATGIPARFSGRGSGTDFTLTIDSLEPEDFAVYYCQQRSNWPLTFGGGTKVEIR
notes: source: HEK293T, transfected; culture supernatant or purified
B2: FB 1E (antibody, V domains shown)
VH: EVQLVESGAEVKKPGESLKISCQGSGYRFNSYWIAWVRQMPGKGLEWMGSIFPTDSDIRYNPSFQGQVTISADKSISIAYLQWSSLKASDTAIYYCARHWASMVRGVIRASHYYGMDVWGQGTTVTVSS
VL: QSVLTQPPSASGSPGQSVTISCSGASSDIGDYNYVSWYQQLPGKAPKLLIYEVTKRPSGVPDRFSGSKSGNTASLTVSGLQADDEADYYCSSYAFGGSDIRVFGGGTKLAVL
notes: as for B1
B3: FB 9D (antibody, V domains shown)
VH: QVQLVESGAEVKKPGESLKISCQGSGYRFNSYWIAWVRQMPGKGLEWMGSIFPTDSDVRYNPSFQGQVTISADKSISFAYLQWSSLKASDTAIYYCARHWASMVRGVIRASHYYGMDVWGQGTTVTVSS
VL: QPVLTQPPSASGSPGQSVTISCSGASSDIGKYNYVSWYQQLPGKAPKLLIYEVTKRPSGVPDRFSGSKSGNTASLTVSGLQADDEADYYCSSYAFGGSDTRVFGGGTKLTVL
notes: as for B1
B4: FD 5E (antibody, V domains shown)
VH: EVQLVESGGVVVQPGGSLRLSCAASGFTFDDYAMHWVRQAPGKGLEWVSLISWDGGSTYYADSVKGRFTISRDNSKNSLYLQMNSLRAEDTALYYCAKDSVRFRYYYGMDVWGQGTTVTVSS
VL: EIVLTQSPATLSLSPGERATLSCRASQSVSSYLAWYQQKPGQAPRLLIYDASNRATGIPARFSGSGSGTDFTLTISSLEPEDFAVYYCQQRSNWPLTFGPGTKVDIK
notes: as for B1
B5: FN 2C (antibody, V domains shown)
VH: EVQLLESGGGVVQPGRSLRLSCAASGFNFNNYGMHWVRQAPGKGLEWVATISYEGSKKFYVDSVKGRFTISKDNSKNTLYLQMNSLRVDDTAFYYCAKRREIFWLGEPPLSDAFDFWGQGTMVTVSS
VL: QSVLTQPPSVSGAPGQRVTISCTGSGSNIGAGYDVHWYQFLPGTAPQLLIYGNNNRPSGVPDRFSGSKSGTSASLAITGLQAEDEADYYCQSYDSSLSGSVFGGGTKLTVL
notes: as for B1
B6: FI 4A (antibody, V domains shown)
VH: EVQLVESGGGLVKPGGSLRLSCAASGFTFSRFSMNWVRQAPGKGLEWVSSISSSGSYIYFADSVKGRFTISRDNAKNSLYLQMNSLRAEDTAIYYCATYLFGDSHTYWGQGTLVTVSS
VL: QSVLTQPHSVSESPGKTVTISCTGSSGSIASNYVQWYQQRPGSAPTTVIYEDNQRPSGVPDRFSGSIDSSSNSASLTISGLKTEDEADYYCQSYDSSNLHWVFGGGTKLTVL
notes: as for B1
B7: FI 1C (antibody, V domains shown)
VH: EVQLVESGGGLVKPGGSLRLSCAASGFTFSDYYMSWIRQAPGKGLEWVSYISSSGSTIYYADSVKGRFTISRDNAKNSLYLQMNSLRAEDTAVYYCARRSNRFLIAFDIWGQGTMVTVSS
VL: QSALTQPASVSGSPGQTITISCTGTSSDVGGYNYVSWYQQHPGKAPKLMIYEVSNRPSGVSNRFSGSKSGNTASLTISGLQAEDEADYYCSSYTSSSTLVVFGGGTKLTVP
notes: as for B1
B8: EY 6A (antibody, V domains shown)
VH: EVQLVESGGGVVQPGRSLRLSCAASAFTFSSYDMHWVRQAPGKGLEWVAVISYDGSNKYYADSVKGRFTISRDNSKNTLYLQMNSLRAEDTAVYYCAKDGGKLWVYYFDYWGQGTLVTVSS
VL: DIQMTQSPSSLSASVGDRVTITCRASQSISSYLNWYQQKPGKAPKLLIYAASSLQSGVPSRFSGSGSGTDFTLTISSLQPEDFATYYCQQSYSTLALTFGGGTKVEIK
notes: as for B1

How the values were obtained:
[1] = target: T1, SARS-CoV-2 spike glycoprotein, full-length, prefusion-stabilised, on MDCK-SIAT1 cells (SARS-CoV-2, reference sequence, UniProt P0DTC2, 986KV987 to 986PP987 | 682RRAR685 to 682GSAG685); test: flow cytometry on cells; conditions: one partner purified
T1 construct: also called MDCK-Spike

[2] = target: T2, SARS-CoV-2 spike glycoprotein S1+S2 extracellular domain (SARS-CoV-2, reference sequence, UniProt P0DTC2); test: ELISA
T2 construct: also called full-length spike glycoprotein ectodomain

Row | Binder | binding result [1] | OD450 [2] [OD450]
1 | B1 | binds | 1.22
2 | B2 | binds | 1.4
3 | B3 | binds | 1.43
4 | B4 | binds | 0.34
5 | B5 | binds | 1.77
6 | B6 | binds | 1.68
7 | B7 | binds | 1.88
8 | B8 | binds | 1.75
